This is an account of results in the supplement of paper PMC9112550, “Optimization of the antimicrobial peptide Bac7 by deep mutational scanning” (BMC Biology, 2022).
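Note: peptides expressed intracellularly from a pBAD plasmid library in pooled LB shake-flask culture, induced with 0.3% L-arabinose, DNA abundance read by NGS, three biological replicates, DESeq2 with apeglm shrinkage.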

The data set concerns Escherichia coli TOP10. As to the kind of experiment: shrunken log2 fold change of peptide-encoding DNA abundance (4.5 h post-induction vs induction); higher = less antimicrobial activity (less host growth inhibition). The conditions noted are these: time post-induction: 4.5 h; library: site-saturation at positions 5, 18, 19, 20.
RRIRLRPPRLPRPRPRPRHNPRP: the “shrunken log2 fold change” value is -0.521.

As for RRIRPRPPRLPRPRPRPAVMPRP, the “shrunken log2 fold change” value was 0.215. The result for RRIRERPPRLPRPRPRPELDPRP reads 0.0389. The same measure for RRIRNRPPRLPRPRPRPVHLPRP: -0.138.

With RRIRPRPPRLPRPRPRPCDAPRP, the “shrunken log2 fold change” value was determined as 0.375. Take RRIRYRPPRLPRPRPRPCVQPRP: the “shrunken log2 fold change” value was -0.236. Regarding RRIRLRPPRLPRPRPRPAEQPRP, the “shrunken log2 fold change” value was 0.0174. The same measure for RRIRGRPPRLPRPRPRPLVCPRP: 0.584; for RRIRNRPPRLPRPRPRPRGKPRP: 0.0233; for RRIRVRPPRLPRPRPRPWTHPRP: -0.104. The result for RRIRIRPPRLPRPRPRPNCSPRP reads -0.175; that for RRIRSRPPRLPRPRPRPSTYPRP, -0.405; that for RRIRQRPPRLPRPRPRPVRPPRP, 0.162.

Turning to RRIRHRPPRLPRPRPRPHPWPRP, the “shrunken log2 fold change” value is -0.0988. The result for RRIRDRPPRLPRPRPRPAKLPRP reads 0.0322; that for RRIRERPPRLPRPRPRPPFCPRP, 0.117; that for RRIRERPPRLPRPRPRPMQQPRP, -0.0321. The result for RRIRFRPPRLPRPRPRPYFLPRP reads -0.628.

Regarding RRIRDRPPRLPRPRPRPMKYPRP, the “shrunken log2 fold change” value was 0.0311.

As to RRIRYRPPRLPRPRPRPFWLPRP, the “shrunken log2 fold change” value was -0.0817.

Consider RRIRVRPPRLPRPRPRPTPTPRP, for which the “shrunken log2 fold change” value amounted to 0.349. The same measure for RRIRMRPPRLPRPRPRPPAHPRP: 0.721. The same measure for RRIRERPPRLPRPRPRPKDEPRP: -0.379.

For RRIRLRPPRLPRPRPRPRQGPRP, the “shrunken log2 fold change” value turned out to be 0.252. The same measure for RRIRVRPPRLPRPRPRPCECPRP: 0.00846; for RRIRWRPPRLPRPRPRPAGRPRP: 0.695; for RRIRKRPPRLPRPRPRPNKSPRP: 0.0234.

RRIRPRPPRLPRPRPRPSTNPRP: the “shrunken log2 fold change” value is -0.301. The result for RRIRERPPRLPRPRPRPPLRPRP reads 0.135; that for RRIRVRPPRLPRPRPRPLWMPRP, -0.523; that for RRIRSRPPRLPRPRPRPHVAPRP, -0.136. The result for RRIRIRPPRLPRPRPRPYMDPRP reads -0.315. The result for RRIRMRPPRLPRPRPRPGKKPRP reads 0.532; that for RRIRPRPPRLPRPRPRPLRYPRP, 0.17; that for RRIRGRPPRLPRPRPRPYKEPRP, -0.375.

Take RRIRERPPRLPRPRPRPFRDPRP: the “shrunken log2 fold change” value came out at 0.0112. The same measure for RRIRWRPPRLPRPRPRPKCLPRP: -0.197; for RRIRMRPPRLPRPRPRPQESPRP: 0.55. The same measure for RRIRKRPPRLPRPRPRPHIVPRP: -0.0154; for RRIRVRPPRLPRPRPRPVRWPRP: 0.805; for RRIRDRPPRLPRPRPRPCWCPRP: -0.00088. The same measure for RRIRVRPPRLPRPRPRPCRRPRP: -0.299.

Consider RRIRCRPPRLPRPRPRPCGLPRP, for which the “shrunken log2 fold change” value came to 0.0617. The result for RRIRPRPPRLPRPRPRPPFAPRP reads 0.647; that for RRIRIRPPRLPRPRPRPEDNPRP, -0.138. Regarding RRIRQRPPRLPRPRPRPECMPRP, the “shrunken log2 fold change” value was -0.0252. The same measure for RRIRFRPPRLPRPRPRPECPPRP: 0.0177; for RRIRFRPPRLPRPRPRPQMDPRP: 0.0317; for RRIRKRPPRLPRPRPRPKVHPRP: 0.243. The same measure for RRIRLRPPRLPRPRPRPSKFPRP: -0.276; for RRIRHRPPRLPRPRPRPCSTPRP: -0.337; for RRIRERPPRLPRPRPRPFCFPRP: -0.106. The result for RRIRKRPPRLPRPRPRPHGGPRP reads -0.0161; that for RRIRVRPPRLPRPRPRPLPQPRP, 0.216; that for RRIRARPPRLPRPRPRPCTYPRP, -0.173. As for RRIRFRPPRLPRPRPRPRKTPRP, the “shrunken log2 fold change” value worked out at 0.0798. In the case of RRIRGRPPRLPRPRPRPRNVPRP, the “shrunken log2 fold change” value was 0.642. The same measure for RRIRLRPPRLPRPRPRPGLWPRP: 0.863; for RRIRLRPPRLPRPRPRPPMMPRP: -0.149. The result for RRIRSRPPRLPRPRPRPRMMPRP reads 0.0975; that for RRIRDRPPRLPRPRPRPKMTPRP, 0.093. The result for RRIRCRPPRLPRPRPRPFEPPRP reads -0.0564; that for RRIRKRPPRLPRPRPRPLKGPRP, -0.022. Turning to RRIRYRPPRLPRPRPRPEMTPRP, the “shrunken log2 fold change” value is -0.0508. The result for RRIRQRPPRLPRPRPRPLERPRP reads 0.0228; that for RRIRERPPRLPRPRPRPGHRPRP, -0.117; that for RRIRGRPPRLPRPRPRPVRRPRP, 0.977. With RRIRARPPRLPRPRPRPRETPRP, the “shrunken log2 fold change” value came to 0.52. The result for RRIRYRPPRLPRPRPRPLPIPRP reads -0.722. The same measure for RRIRQRPPRLPRPRPRPRYIPRP: -0.706; for RRIRERPPRLPRPRPRPTRWPRP: 0.353.

In the case of RRIRNRPPRLPRPRPRPGNNPRP, the “shrunken log2 fold change” value is -0.492.

For the sequence RRIRGRPPRLPRPRPRPTYEPRP, the “shrunken log2 fold change” value was 0.318.

Turning to RRIRWRPPRLPRPRPRPFRHPRP, the “shrunken log2 fold change” value was -0.0307. The same measure for RRIRFRPPRLPRPRPRPFWDPRP: -0.374. The same measure for RRIRFRPPRLPRPRPRPFEHPRP: -0.0558; for RRIRKRPPRLPRPRPRPMRAPRP: 1.23. As to RRIRGRPPRLPRPRPRPIKPPRP, the “shrunken log2 fold change” value is -0.0362. For RRIRGRPPRLPRPRPRPCYRPRP, the “shrunken log2 fold change” value is -0.0861. The result for RRIRKRPPRLPRPRPRPFNSPRP reads -0.0903; that for RRIRMRPPRLPRPRPRPHSYPRP, -0.0152; that for RRIRRRPPRLPRPRPRPNHYPRP, -0.314. The same measure for RRIRGRPPRLPRPRPRPGKRPRP: 0.249. The same measure for RRIRMRPPRLPRPRPRPWNKPRP: -0.535; for RRIRLRPPRLPRPRPRPCVFPRP: -0.13. On to RRIRFRPPRLPRPRPRPAQDPRP, for which the “shrunken log2 fold change” value was determined as 0.381. The result for RRIRFRPPRLPRPRPRPRTKPRP reads 0.947; that for RRIRGRPPRLPRPRPRPNVEPRP, 0.183. Take RRIRWRPPRLPRPRPRPRQLPRP: the “shrunken log2 fold change” value was -0.0051. Take RRIRMRPPRLPRPRPRPVDMPRP: the “shrunken log2 fold change” value stood at 0.185. The same measure for RRIRVRPPRLPRPRPRPQGYPRP: 0.0811.

RRIRGRPPRLPRPRPRPIKLPRP: the “shrunken log2 fold change” value came out at 0.125.

Take RRIRKRPPRLPRPRPRPWKQPRP: the “shrunken log2 fold change” value stood at 0.0185. On to RRIRWRPPRLPRPRPRPGRMPRP, for which the “shrunken log2 fold change” value was determined as 0.000663. The same measure for RRIRVRPPRLPRPRPRPTHIPRP: 0.268; for RRIRVRPPRLPRPRPRPFWSPRP: 0.0887.

In the case of RRIRARPPRLPRPRPRPLAFPRP, the “shrunken log2 fold change” value is 0.703. The result for RRIRQRPPRLPRPRPRPGATPRP reads 0.273; that for RRIRHRPPRLPRPRPRPGFGPRP, 0.384; that for RRIRRRPPRLPRPRPRPILRPRP, 0.691.

As to RRIRFRPPRLPRPRPRPDLWPRP, the “shrunken log2 fold change” value came to 0.187. The same measure for RRIRYRPPRLPRPRPRPLQQPRP: -0.25; for RRIRTRPPRLPRPRPRPKRIPRP: 0.0762. RRIRDRPPRLPRPRPRPQPYPRP: the “shrunken log2 fold change” value is -0.651. The same measure for RRIRIRPPRLPRPRPRPYWGPRP: -0.151.

For RRIRRRPPRLPRPRPRPALMPRP, the “shrunken log2 fold change” value was 0.195. The result for RRIRRRPPRLPRPRPRPEWKPRP reads 0.0796. The same measure for RRIRRRPPRLPRPRPRPCTYPRP: -0.27.

As for RRIRLRPPRLPRPRPRPYEWPRP, the “shrunken log2 fold change” value was -0.00151. The result for RRIRTRPPRLPRPRPRPIRKPRP reads 0.0309. The result for RRIRWRPPRLPRPRPRPMWMPRP reads -0.195. The same measure for RRIRGRPPRLPRPRPRPMLNPRP: 0.477; for RRIRMRPPRLPRPRPRPTPDPRP: 1.39. Consider RRIRTRPPRLPRPRPRPIPPPRP, for which the “shrunken log2 fold change” value amounted to 0.384.

Turning to RRIRKRPPRLPRPRPRPVGMPRP, the “shrunken log2 fold change” value is 0.554. The same measure for RRIRFRPPRLPRPRPRPEAYPRP: -0.0029; for RRIRMRPPRLPRPRPRPYLFPRP: -0.0192. Consider RRIRSRPPRLPRPRPRPMWHPRP, for which the “shrunken log2 fold change” value is -0.332. The same measure for RRIRKRPPRLPRPRPRPCQQPRP: -0.0287. Consider RRIRERPPRLPRPRPRPFKAPRP, for which the “shrunken log2 fold change” value turned out to be 2.45.

With RRIRTRPPRLPRPRPRPHKEPRP, the “shrunken log2 fold change” value was -0.0263.

On to RRIRQRPPRLPRPRPRPEQKPRP, for which the “shrunken log2 fold change” value was 0.039. Turning to RRIRSRPPRLPRPRPRPFDWPRP, the “shrunken log2 fold change” value is -0.0461. With RRIRMRPPRLPRPRPRPLFIPRP, the “shrunken log2 fold change” value was -0.643. The result for RRIRRRPPRLPRPRPRPMAHPRP reads 0.0412.
